Measured values reported in US20240102068A1, “C-GLYCOSYLTRANSFERASE VARIANTS AND USE THEREOF” (KOREA ADVANCED INSTITUTE OF SCIENCE AND TECHNOLOGY, priority 2021, published 2024).

Columns and labels:
[1] = system: FK; experiment: dcII production from FK by C-glycosyltransferase candidates and GtCGT mutants in FK-producing E. coli, flask culture; assay type: cell-based; settings: mutants transformed into FK strains, flask culture
Protocol: Flask culture was carried out under the following conditions. Colonies were seeded into 10 mL of LB medium supplemented with appropriate concentrations of antibiotics, followed by culture overnight at 37° C. The culture fluid thus prepared was passaged into a 250 mL baffled flask containing 50 mL of R/2 medium supplemented with 3 g/L yeast extract and 20 g/L glucose (with 0.45 g/L ascorbic acid if necessary), followed by culture at 30° C. and 200 rpm. The composition of R/2 medium (pH 6.8) was as follows (per liter): 2 g of (NH4)2HPO4, 6.75 g of KH2PO4, 0.85 g of citric acid, 0.7 g of MgSO4·7H2O, and 5 ml of trace metal solution (TMS) [10 g of FeSO4·7H2O, 2.25 g of ZnSO4·7H2O, 1 g of CuSO4·5H2O, 0.5 g of MnSO4·5H2O, 0.23 g of Na2B4O7·10H2O, 2 g of CaCl2·2H2O, and 0.1 g of (NH4)6Mo7O24 per liter of 5 M HCl]. When OD600 of the culture fluid reached 0.6-0.8, 1 mM isopropyl β-D-1-thiogalactopyranoside (IPTG) was added to induce exogenous gene expression, followed by culture for 48 hours.
After culture, production analysis was performed under the following conditions. After flask culture, 50 mL of the culture fluid was centrifuged at 4,000 g for 30 minutes, and then the supernatant was desalted and concentrated. Here, Oasis HLB cartridges (Water) were used. The supernatant was concentrated 1-fold for FK, 30-fold for KA, 45-fold for dell, and 200-fold for carminic acid. The concentrated sample was re-dissolved in an appropriate volume of DMSO and impurities were then removed therefrom using a 0.22 μm PTFE filter. The prepared sample was analyzed by MS (LC/MSD VL; Agilent) coupled with HPLC (1100 series; Agilent). An Eclipse XDB-C18 column was used, 0.1% formic acid was used as buffer A, and methanol was used as buffer B. Analysis was performed in an ESI negative mode. For more accurate analysis of carminic acid, LC-MS/MS was performed using an HPLC Triple Quadrupole Mass Spectrometer (LCMS-8050, Shimadzu) (MRM mode).
Flask culture started by seeding colonies from LB agar plates into test tubes containing 10 mL of LB. As such, an appropriate concentration of antibiotics was added, followed by culture overnight at 37° C. at 220 rpm. 1 mL of the seed culture thus prepared was inoculated into a 250 mL baffled flask containing 50 mL of R/2 medium (supplemented with 3 g/L yeast extract and 20 g/L glucose), followed by culture at 30° C. and 200 rpm. The composition of R/2 medium was as follows (pH 6.8, per 1 L): 2 g of (NH4)2HPO4, 6.75 g of KH2PO4, 0.85 g of citric acid, 0.8 g of MgSO4·7H2O, and 5 ml of trace metal solution (TMS). The composition of TMS was as follows (based on 0.1 M HCl, per 1 L): 10 g of FeSO4·7H2O, 2.25 g of ZnSO4·7H2O, 1 g of CuSO4·5H2O, 0.58 g of MnSO4·5H2O, 0.02 g of Na2B4O7·10H2O, 2 g of CaCl2·2H2O, and 0.1 g of (NH4)6Mo7O24·4H2O. When OD600 of the culture fluid reached 0.6-0.8, 0.5 mM IPTG was added to induce exogenous enzyme expression, followed by culture for 48 hours. In all experiments for producing flavokermesic acid, kermesic acid, dcII, and carminic acid, 0.45 g/L of ascorbic acid was further added.
The production of carminic acid (CA) from FK was performed by two biosynthesis pathways, both of which require monooxygenase and C-glycosyltransferase. FK may be oxidized into KA or may be C-glycosylated into dcII. […] In order for the enzyme to have activity, however, it must be glycosylated, and since it also has a transmembrane helix and a signal peptide, successful expression in cells such as E. coli is considered difficult.
For the enzymes selected above, pCDF-DcCGT, pCDF-MiCGT, pCDF-SfCGT, pCDF-EnCGT, pCDF-OsCGT, pCDF-FeCGT, pCDF-GmCGT, pCDF-AvCGT, pCDF-AvCGT, pCDF-ZmCGT, and pCDF-GtCGT were constructed, and all genes except for the iroB gene amplified from genomic DNA of E. coli Nissle using the iroB_gib_F primer and the iroB_gib_R primer were artificially synthesized and inserted into the NdeI site of the pCDFDuet-1 plasmid using Gibson assembly. […]

[2] = system: aloesone; experiment: Aloesin production from aloesone by GtCGT and variants in E. coli BL21(DE3), flask culture; assay type: cell-based; settings: for aloesin production increase: compared to conventional concentration of 0.3 μg/L (ALS strain with GtCGT^V93Q/Y193F); for aloesin production: variant on pCDF-RpALS-GtCGT plasmid (additional RpALS), with pWAS-anti-pabA, pRSF-RpALS, pBBR1-zwf
Protocol: Also, in LC-MS/MS for aloesin analysis, MS (Agilent 6550 iFunnel Q-TOF LC/MS System) coupled with ultra HPLC (UHPLC; 1290 Infinity II LC System; Agilent) was used. Here, an Eclipse-plus C18 column was used, and 0.1% formic acid was used as buffer A, and acetonitrile to which 0.1% formic acid was added was used as buffer B.
Thereafter, in order to test the production of aloesin, the pCDF-GtCGT or pCDF-GtCGT^V93Q/Y193F plasmid was transformed into the BL21(DE3) strain containing pWAS-anti-pabA, pRSF-RpALS, and pBBR1-zwf plasmids, followed by flask culture.
Similarly to the test for increased production of aloesone, RpALS was additionally introduced to increase aloesin production. To this end, pCDF-RpALS-GtCGT^V93Q/Y193F was constructed instead of introducing pCDF-GtCGT^V93Q/Y193F. Specifically, RpALS was amplified from pCDF-RpALS using pCDFDuet F and pCDFDuet R primers, and inserted into the NcoI and BamHI sites of the pCA plasmid through Gibson assembly. Thereafter, four plasmids, namely pRSF-RpALS, pCDF-RpALS-GtCGT^V93Q/Y193F, pWAS-anti-pabA, and pBBR1-zwf, were transformed into E. coli BL21(DE3), which was named an ALS strain.
(§1) Mutagenesis for a specific sequence was performed in the same manner as in Example 2. Here, plasmids containing gene mutants were constructed using pCDF-RpALS-GtCGT^V93Q/Y193F as a template and using primer pairs shown in Table 11 below. The plasmids thus constructed were transformed into the BL21 (DE3) strain along with three plasmids, namely pWAS-anti-pabA, pRSF-RpALS, and pBBR1-zwf, followed by flask culture under the same conditions as in Example 3 using the strains thus constructed. The concentration of aloesin produced was measured in an MRM mode of the HPLC Triple Quadrupole Mass Spectrometer (LCMS-8050, Shimadzu) of the KAIST Biocore Center.
as §1, with “13” for “11”

[3] = substrate: Cc1c(C(=O)O)c(O)cc2c1C(=O)c1c(O)cc(O)cc1C2=O; experiment: enzyme kinetics of DnrF; assay type: biochemical, Streptomyces peucetius; settings: other: means ± SD, n = 3
[4] = substrate: Cc1c(C(=O)O)c(O)cc2c1C(=O)c1c(O)cc(O)cc1C2=O; experiment: enzyme kinetics of DnrF P217K; assay type: biochemical, Streptomyces peucetius; settings: other: means ± SD, n = 3

B1: V132A (protein, listed as Gentiana triflora)
chain: MGSLTNNDNLHIFLVCFIGQGVVNPMLRLGKAFASKGLLVTLSAPEIVGTEIRKANNLNDDQPIKVGSGMIRFEFFDDGWESVNGSKPFDVWVYINHLDQTGRQKLPIMLKKHEETGTPVSCLILNPLVPWAADVADSLQIPCATLWVQSCASFSAYYHYHHGLVPFPTESEPEIDVQLPGMPLLKYDEVPDYLHPRTPYPFFGTNILGQFKNLSKNFCILMDTFYELEHEIIDNMCKLCPIKPIGPLFKIPKDPSSNGITGNFMKVDDCKEWLDSRPTSTVVYVSVGSVVYLKQEQVTEMAYGILNSEVSFLWVLRPPSKRIGTEPHVLPEEFWEKAGDRGKVVQWSPQEQVLAHPATVGFLTHCGWNSTQEAISSGVPVITFPQFGDQVTNAKFLVEEFKVGVRLGRGELENRIITRDEVERALREITSGPKAEEVKENALKWKKKAEETVAKGGYSERNLVGFIEEVARKTGTK
- KA production compared with wild-type GtCGT [1]: higher KA production than wild-type GtCGT

B2: GtCGT V93Q/Y193F/P385A: GtCGT^V93Q/Y193F with additional P385A (Table 12 No. 15) (protein, listed as Gentiana triflora)
chain: MGSLTNNDNLHIFLVCFIGQGVVNPMLRLGKAFASKGLLVTLSAPEIVGTEIRKANNLNDDQPIKVGSGMIRFEFFDDGWESVNGSKPFDVWQYINHLDQTGRQKLPIMLKKHEETGTPVSCLILNPLVPWVADVADSLQIPCATLWVQSCASFSAYYHYHHGLVPFPTESEPEIDVQLPGMPLLKYDEVPDFLHPRTPYPFFGTNILGQFKNLSKNFCILMDTFYELEHEIIDNMCKLCPIKPIGPLFKIPKDPSSNGITGNFMKVDDCKEWLDSRPTSTVVYVSVGSVVYLKQEQVTEMAYGILNSEVSFLWVLRPPSKRIGTEPHVLPEEFWEKAGDRGKVVQWSPQEQVLAHPATVGFLTHCGWNSTQEAISSGVPVITFAQFGDQVTNAKFLVEEFKVGVRLGRGELENRIITRDEVERALREITSGPKAEEVKENALKWKKKAEETVAKGGYSERNLVGFIEEVARKTGTK
- aloesin production increase [2]: ≥ 14.1 fold
- aloesin production [2]: 4.23 µg/L

B3: GtCGT V93Q/Y193F/I323S: GtCGT^V93Q/Y193F with additional I323S (Table 10 No. 12) (protein, listed as Gentiana triflora)
chain: MGSLTNNDNLHIFLVCFIGQGVVNPMLRLGKAFASKGLLVTLSAPEIVGTEIRKANNLNDDQPIKVGSGMIRFEFFDDGWESVNGSKPFDVWQYINHLDQTGRQKLPIMLKKHEETGTPVSCLILNPLVPWVADVADSLQIPCATLWVQSCASFSAYYHYHHGLVPFPTESEPEIDVQLPGMPLLKYDEVPDFLHPRTPYPFFGTNILGQFKNLSKNFCILMDTFYELEHEIIDNMCKLCPIKPIGPLFKIPKDPSSNGITGNFMKVDDCKEWLDSRPTSTVVYVSVGSVVYLKQEQVTEMAYGILNSEVSFLWVLRPPSKRSGTEPHVLPEEFWEKAGDRGKVVQWSPQEQVLAHPATVGFLTHCGWNSTQEAISSGVPVITFPQFGDQVTNAKFLVEEFKVGVRLGRGELENRIITRDEVERALREITSGPKAEEVKENALKWKKKAEETVAKGGYSERNLVGFIEEVARKTGTK
- aloesin production increase [2]: ≥ 25.8 fold
- aloesin production [2]: 7.75 µg/L

B4: Streptomyces peucetius DnrF (aklavinone 12-hydroxylase), wild type, SEQ ID NO: 2 (Streptomyces peucetius) (protein)
chain: MALTKPDVDVLVVGGGLGGLSTALFLARRGARVLLVERHASTSVLPKAAGQNPRTMELFRFGGVADEILATDDIRGAQGDFTIKVVERVGGRVLHSFAESFEELVGATEQCTPMPWALAPQDRVEPVLVAHAAKHGAEIRFATELTSFQAGDDGVTARLRDLGTGAESTVSARYLVAADGPRSAIRESLGITRHGHGTLAHFMGVIFEADLTAVVPPGSTGWYYLQHPDFTGTFGPTDRPNRHTFYVRYDPERGERPEDYTPQRCTELIRLAVDAPGLVPDILDIQAWDMAAYIADRWREGPVLLVGDAAKVTPPTGGMGGNTAIGDGFDVAWKLAAVLRGEAGERLLDSYGAERSLVSRLVVDESLAIYAQRMAPHLLGSVPEERGTAQVVLGFRYRSTAVAAEDDDPEPTEDPRRPSGRPGFRAPHVWIEQDGTRRSTVELFGDCWVLLAAPEGGAWGQAAARAAADLGVRLDVHLVGRDVAAPSGELTRTYGIGRAGASLVRPDGVVAWRTAVAPGAEAQDQLSTLLTRLLAR
notes: purification details not in the excerpts
- Km [3]: 56.75 ± 4.68 µM
- Vmax [3]: 0.99 µM/min
- Vmax/Km [3]: 0.0175 min⁻¹

B5: Streptomyces peucetius DnrF (aklavinone 12-hydroxylase, SEQ ID NO: 2) variant P217K (Streptomyces peucetius; P217K) (protein)
chain: VALTKPDVDVLVVGGGLGGLSTALFLARRGARVLLVERHASTSVLPKAAGQNPRTMELFRFGGVADEILATDDIRGAQGDFTIKVVERVGGRVLHSFAESFEELVGATEQCTPMPWALAPQDRVEPVLVAHAAKHGAEIRFATELTSFQAGDDGVTARLRDLGTGAESTVSARYLVAADGPRSAIRESLGITRHGHGTLAHFMGVIFEADLTAVVPKGSTGWYYLQHPDFTGTFGPTDRPNRHTFYVRYDPERGERPEDYTPQRCTELIRLAVDAPGLVPDILDIQAWDMAAYIADRWREGPVLLVGDAAKVTPPTGGMGGNTAIGDGFDVAWKLAAVLRGEAGERLLDSYGAERSLVSRLVVDESLAIYAQRMAPHLLGSVPEERGTAQVVLGFRYRSTAVAAEDDDPEPTEDPRRPSGRPGFRAPHVWIEQDGTRRSTVELFGDCWVLLAAPEGGAWGQAAARAAADLGVRLDVHLVGRDVAAPSGELTRTYGIGRAGASLVRPDGVVAWRTAVAPGAEAQDQLSTLLTRLLAR
notes: as for B4
- Km [4]: 43.31 ± 2.64 µM
- Vmax [4]: 1.01 µM/min
- Vmax/Km [4]: 0.0234 min⁻¹
